Reference: patent US20260007728A1, “COMBINATION THERAPIES INVOLVING L-ASPARAGINASE” (Jazz Pharmaceuticals Ireland Ltd., priority 2022, published 2026)

B1: JZP-458: recombinant, unfunctionalized, short acting Erwinia L-asparaginase (SEQ ID NO: 1 tetramer) (protein, listed as Dickeya chrysanthemi)
chain: ADKLPNIVILATGGTIAGSAATGTQTTGYKAGALGVDTLINAVPEVKKLANVKGEQFSNMASENMTGDVVLKLSQRVNELLARDDVDGVVITHGTDTVEESAYFLHLTVKSDKPVVFVAAMRPATAISADGPMNLLEAVRVAGDKQSRGRGVMVVLNDRIGSARYITKTNASTLDTFKANEEGYLGVIIGNRIYYQNRIDKLHTTRSVFDVRGLTSLPKVDILYGYQDDPEYLYDAAIQHGVKGIVYAGMGAGSVSVRGIAGMRKAMEKGVVVIRSTRTGNGIVPPDEELPGLVSDSLNPAHARILLMLALTRTSDPKVIQEYFHTY
modifications: homotetramer

What was measured:
DLBCL lines = assay: Single-agent sensitivity of lymphoma lines (dose-response, 72 hrs incubation); assay type: cell-based; conditions: ABC, GCB, and THL lines; read-out: sensitivity to carfilzomib (range)
Excerpt: Sensitivity to asparaginase and 11 chemotherapeutic agents (carfilzomib, doxorubicin, rapamycin, ibrutinib, cyclophosphamide, prednisolone, metformin, venetoclax, navitoclax, rituximab and vincristine) determined in 8 lymphoma lines, including diffuse large B-cell and Burkitt lymphomas. The investigated lymphoma lines are sensitive to asparagine depletion within the clinically achievable range. Expression of decisive genes (BCL2, BCL6, BCL2L1, MYC, ASNS) determined in 8 lymphoma lines (FIGS. 11 and 12). Increased expression of BCL2 served as marker for resistance of ibrutinib and rapamycin in triple hit lymphoma (FIGS. 11 and 12). Increased expression of ASNS served as marker for resistance of carfilzomib and asparaginase in Burkitt lymphoma (FIGS. 11 and 12). Identified combination agents that enhanced asparaginase activity in vitro include synergy of JZP458 and rituximab, venetoclax and ibrutinib in lymphoma lines (DLBCL) (see FIG. 13, FIG. 15, and FIG. 17). […] In vivo tolerability study of long acting Erwinia Asparaginase.
ABC-DLBCL lines and one of GCB-DLBCL lines are very sensitive to JZP458 in the range of 0.011-7.3 IU/mL. Dose-response curve overlays-72 hrs incubation.

[1] = system: ASNS expression in Burkitt lymphoma lines; assay: qPCR gene expression after compound treatment; assay type: cell-based; conditions: for change of ASNS expression: Burkitt lymphoma lines; for increase of ASNS expression: Burkitt lymphoma lines (BJAB, RAJI, RAMOS), after treatment
Method: (§1) Cell Culture: Cell culture medium: RPMI 1640 medium (#2198761, Thermo Fisher) supplemented with 10% fetal calf serum (#S00AZ, BioWest) and 1% pen/strep (#15140-122, Thermo Fisher). At day-1, 900 μl cell suspension was seeded in 24-well plates (#662165, Greiner Bio-One) at a density of 128,000 cells/well. At day 0, 100 μl compound was added in three different concentrations to reach a final concentration of 0.316×IC50, 1×IC50, and 3.16×IC50 (unless indicated otherwise). To the control samples, 100 μl 20 mM HEPES+3.16% DMSO was added instead of compound. When the compound is prepared in HEPES instead of DMSO, 20 mM HEPES without DMSO was added to the cells. The cells were collected at 6 hours, 24 hours and 48 hours after addition of the compound and were transferred to a 96-well deep well plate and centrifuged for 5 min at 340×g. Prior to the collection of the cells microscopic pictures were taken from the untreated (control) cells. After removing the medium, 200 μl RNA protect (#76526, Qiagen) was added to the cell pellet and the cells were stored at −80° C.
(§2) RNA isolation: Total RNA was isolated with the SV96 Total RNA Isolation System kit (#Z3505, Promega) according to manufacturer's instructions. The procedure includes a ‘RNAse free DNAse’ gDNA removal step.
(§3) Determining the RNA concentration: RNA concentrations were determined with the RiboGreen (#R11490, Thermo Fisher) kit according to manufacturer's instructions.
(§4) cDNA synthesis: RNA was reverse transcribed into cDNA using the Quantitect Reverse Transcript Kit (#205313, Qiagen) according to manufacturer's instructions. This procedure includes a second ‘RNAse free DNAse’ gDNA removal step, ensuring the complete removal of gDNA from the samples. For each time point (6 h, 24 h, or 48 h) identical volumes of RNA were used for cDNA synthesis. After synthesis, cDNA is diluted with nuclease free water to obtain approximately similar cDNA concentrations per sample.
(§5) qPCR: 1) 50° C. for 10 min (Uracil-DNA glycosylase ([…]) step to remove all potential traces of amplicon DNA from previous qPCRs); 2) 5 min UDP inactivation/denaturation at 95° C.; 3) 40 cycles of 10s denaturation at 95° C., 20s annealing at 60° C., and 30s extension at 72° C.; and 4) Dissociation curve to determine the melting temperature of the qPCR amplicon.
(§6) qPCR Data Analysis: Cq and Tm raw data values are determined by the BioRad CFX manager software from the PCR machine. For every PCR sample that produced a Cq value the corresponding melting temperature of the PCR amplicon (Tm) was checked to identify samples that generated dual or a specific PCR products. A PCR product is regarded a specific when its Tm is >0.5° C. different from that the Tm of the specific PCR amplicon, in this case the Cq value is removed and not used for further data analysis. Cq values were than normalized by subtracting the (mean) Cq value of the two housekeeping genes (ACTB & RPS18) from the Cq value of the gene of interest. The normalized value is called DCq. The Cq difference between sample and the control (DDCq) was calculated by subtracting DCq control from DCq sample. The fold difference in expression between the control (no compound) and the compound treated sample is than calculated according the 2^-DDCq method.

[2] = system: BCL2 expression in DLBCL lines (ABC and GCB type); assay: qPCR gene expression after compound treatment; assay type: cell-based
Method: as §1, §2, §3, §4, §5, §6

[3] = Half life of asparaginases; conditions: in vivo
[4] = system: liquid tumors with NRAS mutations; assay: Sensitivity to L-asparaginase across cell line panel by NRAS status; assay type: cell-based; conditions: NRAS mutant vs other lines
Method: Sensitivity to L-asparaginase was determined in 140 lines across multiple indications. In silico tandem perturbation effects of Asparagine synthetase and signaling components analyzed (≈700 lines). A subset of lines are ASNS dependent for survival (see McDonald, E. Robert et al. (2017). Project DRIVE: A Compendium of Cancer Dependencies and Synthetic Lethal Relationships Uncovered by Large-Scale, Deep RNAi Screening. Cell 170, 577-592 and https://oncologynibr.shinyapps.io/drive/which is herein incorporated by reference to show expression of ASNS and sensitivity to asparagine depletion). In vitro, most lines are sensitive to asparagine depletion within a clinically achievable range (see FIG. 6).

| IC50 (DLBCL lines) [nM] | Molecule | change of ASNS expression [1] | increase of ASNS expression [1] [fold] | change of BCL2 expression [2] | half life t½ [3] [h] | sensitivity of liquid tumors with NRAS mutations [4] |
| --- | --- | --- | --- | --- | --- | --- |
| 1.3 to 7.2 | CC(C)C[C@H](NC(=O)[C@H](CCc1ccccc1)NC(=O)CN1CCOCC1)C(=O)N[C@@H](Cc1ccccc1)C(=O)N[C@@H](CC(C)C)C(=O)[C@@]1(C)CO1 [carfilzomib, reference compound] | significantly increase | 1.25 | – | – | – |
| – | B1 | significantly increase | 0.75 | decrease | ~2.13 | more sensitive |
